# Results reported in publication PMC6452516, “Biochemical characterization of three new α-olefin-producing P450 fatty acid decarboxylases with a halophilic property” (Biotechnology for Biofuels, 2019).
# B1: OleTSQ (Lacicoccus qingdaonensis) (protein)
# chain: MATIKRDKGLDNSVKVMKQGYLYTTNQRERLGVTDGVFETRALGGKRIIVLSGKDGAELFYDNDKIERSGTLPKRVVNTLFGKGAIHTTTGKVHIDRKALFMSLMTEGNLKYLRELTRNLWFANTQRMESMDQVNVYRESIIVLTKVGTRWAGVQAPEKEIENIATDMDIMIDSFKAIGSAFKGYREAKAARRRVEDWLEDQIIQTRKGKIHPPKGTALYEFAHWKDYKGEPMDSRLCGIDLMNTFRPLIAINRFVAFGALAMYENPVAREKIKQDDDYAYMFAQEVRRFYPFVPYLPAKAKVDFQYKGYEIEKDTMLALDIYGTMHDPNVWEDPNEFYPERFKDWDGSPFDLIPQGGGDYHTNHRCAGEWMTVIIMEETMKYFASRINYDVPEQDLTVDLNSLPGYIKSGFVIENVQENVDRT
# notes: recombinant, codon-optimized gene in pET28b (NdeI/XhoI), N-terminal His6 tag, E. coli BL21(DE3), Ni-NTA
# B2: OleTJH (Jeotgalicoccus aerolatus) (protein)
# chain: MASLKRDKGLDNTLKVMKQGYLYTTNQRNRLNTTVFETKALGGKPFAVVTGKEGAEMFYNNDIVQREGMLPKRIVNTLFGKGAIHTIDGKKHVDRKALFMSLMTEGNLNYVRELTRTLWQANTQRMESMDEVNIYRESIVLLTKVGTRWAGVQAPPEQIERIATDMDIMIDSFKGLGGVFKGYKESKAARRRVEDWLEDQILETRKGNIHPPEGTALYEFAHWEDYLGNPMDSRNCAIDLMNTFRPLIAINRFVSFGLLAMHDNPVSREKIKSEPDYAYKFAQEVRRYYPFVPFLPGKAKTDIDFQGVTIPAGHGLAIDVYGTLHDESLWEDPNEFRPERFEGWDGSPFDLIPQGGGDYWTNHRCAGEWITVIIMEETMKYFAEKVTYDVPEQDLTVDLNSIPGYVKSGFVIKNVQEVVDRR
# notes: as for B1
# B3: OleTJE (Jeotgalicoccus sp. ATCC 8456) (protein)
# chain: MATLKRDKGLDNTLKVLKQGYLYTTNQRNRLNTSVFQTKALGGKPFVVVTGKEGAEMFYNNDVVQREGMLPKRIVNTLFGKGAIHTVDGKKHVDRKALFMSLMTEGNLNYVRELTRTLWHANTQRMESMDEVNIYRESIVLLTKVGTRWAGVQAPPEDIERIATDMDIMIDSFRALGGAFKGYKASKEARRRVEDWLEEQIIETRKGNIHPPEGTALYEFAHWEDYLGNPMDSRTCAIDLMNTFRPLIAINRFVSFGLHAMNENPITREKIKSEPDYAYKFAQEVRRYYPFVPFLPGKAKVDIDFQGVTIPAGVGLALDVYGTTHDESLWDDPNEFRPERFETWDGSPFDLIPQGGGDYWTNHRCAGEWITVIIMEETMKYFAEKITYDVPEQDLEVDLNSIPGYVKSGFVIKNVREVVDRT
# notes: purified recombinant P450 from E. coli, His-tagged (Ni-NTA); cloning of this control enzyme not described here
# Key:
# Test in all cases: GC of initial substrate consumption, Michaelis-Menten fit
# Conditions in all cases: 330 μM H2O2 as co-substrate, pH 7.4, 50 mM NaH2PO4, 500 mM NaCl, 10% glycerol, 30 °C, 15–40 nM enzyme
# [1] = substrate: CCCCCCCCCCCC(=O)O; format: biochemical, Lacicoccus qingdaonensis
# Excerpt: GC of initial substrate consumption, Michaelis-Menten fit on OleTSQ
# [2] = substrate: CCCCCCCCCCCC(=O)O; format: biochemical, Jeotgalicoccus aerolatus
# Excerpt: GC of initial substrate consumption, Michaelis-Menten fit on OleTJH
# [3] = substrate: CCCCCCCCCCCC(=O)O; format: biochemical, Jeotgalicoccus sp. ATCC 8456
# Excerpt: GC of initial substrate consumption, Michaelis-Menten fit on OleTJE
protein,measurement,setting,value
B1,Km,[1],35 ± 10 µM
same,kcat,[1],9.5 ± 0.917 s⁻¹
same,kcat/Km,[1],267000 M⁻¹ s⁻¹
B2,Km,[2],46 ± 15 µM
same,kcat,[2],15.2 ± 1.88 s⁻¹
same,kcat/Km,[2],333000 M⁻¹ s⁻¹
B3,Km,[3],41 ± 4 µM
same,kcat,[3],14.3 ± 0.467 s⁻¹
same,kcat/Km,[3],350000 M⁻¹ s⁻¹
